# Data reported in US20220047716A1 (SUTRO BIOPHARMA, published 2022).
# Positions count from the first letter of the chain named.
# B1: SRP1848-G04 (antibody, V domains shown)
# VH: EVQLVESGGGLVQPGGSLRLSCAASGFNIHSTDIHWVRQAPGKGLEWVAYITPAGGATFYADSVKGRFTISADTSKNTAYLQMNSLRAEDTAVYYCARYPYWFAGYMDYWGQGTLVTVSS
# VL: not shown
# B2: SRP1848-G06 (antibody, V domains shown)
# VH: B1 VH with H30R, F59Y, S63N, Y99Q
# VL: not shown
# B3: SRP1848-G09 (antibody, V domains shown)
# VH: B1 VH with H30R, S31G, Y99H, P100E, A104S
# VL: not shown
# B4: SRP1848-G11 (antibody, V domains shown)
# VH: B1 VH with H30S, F59W, A104S
# VL: not shown
# B5: SRP1848-G07 (antibody, V domains shown)
# VH: B1 VH with F59W, Y101F
# VL: not shown
# B6: SRP1848-G10 (antibody, V domains shown)
# VH: B1 VH with G16S, H30R, F59Y, M107I
# VL: not shown
# B7: SRP1848-D03 (antibody, V domains shown)
# VH: EVQLVESGGGVVQPGGSLRLSCAASGFNIRYFSIHWVRQAPGKGLEWVGDIFPNDGSTDYADSVKGRFTISADTSKNTAYLQMNSLRAEETAVYYCARGHWSWPSGYWYYLDYWGQGTLVTVSS
# VL: not shown
# B8: SRP1848-A02 (antibody, V domains shown)
# VH: EVQLVESGGGLVQPGGSLRLSCAASGFNISGFRIHWVRQAPGKGLEWVAGIYPESGATYYADSVKGRFTISADTSKNTAYLQMNSLRAEDTAVYYCARHLYVWDWVLDHVLDYWGQGTLVTVSS
# VL: not shown
# B9: SRP1848-E03 (antibody, V domains shown)
# VH: EVQLVESGGGLAQPGGSLRLSCAASGFNIGNYYIHWVRQAPGKGLEWVGGITPRDGFTDYADSVKGRFTISADTSKNTAYLQVNSLRAEDTAVYYCARGSWSWPAGHSYYLDYWGQGTLVTVSS
# VL: not shown
# B10: SRP1848-F06 (antibody, V domains shown)
# VH: EVQLVESGGGLVQPGGSLRLSCAASGFNISLSYIHWVRQAPGKGLEWVGGISPIDGNTDYADSVKGRFTISADTSKNTAYLQMNSLRAEDTAVYYCARGFWAWRSGYGYYLDYWGQGTLVTVSS
# VL: not shown
# B11: SRP1848-G03 (antibody, V domains shown)
# VH: B9 VH with A12V, G30S, N31T, R54S, F68S, V83M, A105S, S108G, Y110F
# VL: not shown
# B12: SRP1848-F09 (antibody, V domains shown)
# VH: B10 VH with L31N, S32H, I54L, N57Y, F100A, A102S, L111I
# VL: not shown
# B13: SRP1848-G01 (antibody, V domains shown)
# VH: B10 VH with L31R, S32H, Y33S, G50W, S52A, I54N, N57S, F100S, G108S, Y110F
# VL: not shown
# B14: SRP1848-H01 (antibody, V domains shown)
# VH: B7 VH with V11L, Y31T, F32Q, V48I, N54I, S57I, E90D, H100S, Y107M, W108D
# VL: not shown
# B15: SRP1848-F11 (antibody, V domains shown)
# VH: B10 VH with L31N, S32N, S52T, K76M, F100S, A102Y, S105A, T118A
# VL: not shown
# B16: SRP1848-F10 (antibody, V domains shown)
# VH: B10 VH with L31N, S32N, Y33S, G50S, S52F, I54N, N57Y, F100S, A102F
# VL: not shown
# B17: SRP1848-F07 (antibody, V domains shown)
# VH: EVQLVESGGGLVQPGGSLRLSCAASGFNISNHSIHWVRQAPGKGLEWVGEIYPNDGITDYADSVKGRFTISADTSKNTAYLQMNSLSAEDTAVYYCARGSWDWRSGYSYYLDYWGQGTLVTVSS
# VL: not shown
# B18: SRP1848-F08 (antibody, V domains shown)
# VH: B17 VH with S25G, L45V, N54V, Q82R, S87R, D102Y, R104Q
# VL: not shown
# B19: SRP1848-E06 (antibody, V domains shown)
# VH: EVQLVESGGGLVQPSGSLRLSCAASGFNINRYYIHWVRQAPGKGLEWVGGITPNDGYTDYADSVEGRFTTSADTSKNTAYLQMNSLRAEDTAVYYCARGTWSWPSGHSYYLDYWGQGTLVTVSS
# VL: not shown
# B20: SRP2060-E10 (antibody, V domains shown)
# VH: EVQLLESGGGLVQPGGSLRLSCAFSGFSLSTFGMGVGWVRQAPGKGLEWVSHIWWDDDKYYHPALKGRFTISKDNSKNTVYLQMNSLRAEDTAVYYCGRNHFPHYYGSSHWYFNVWGQGTTVTVSS
# VL: EIVMTQSPATLSLSPGERATLSCKASQDINSYLSWYQQKPGQAPRLLIYRANRLVDGIPARFSGSGSGTDYTLTISSLEPEDFAVYYCLQYDEFPYTFGGGTKVEIK
# B21: SRP2060-B01 (antibody, V domains shown)
# VH: B20 VH with F24L, P43T, Y81H
# VL: DIQMTQSPSTLSASVGDRVTITCKASQDINSYLSWYQQKPGKAPKLLIYRANRLVDGVPSRFSGSGSGTEFTLTISSLQPDDFATYYCLQYDEFPYTFGGGTKVEIK
# B22: SRP2060-A06 (antibody, V domains shown)
# VH: B20 VH with S51G, H62Y, N114D
# VL: B21 VL
# B23: SRP2060-E05 (antibody, V domains shown)
# VH: B20 VH with I71V
# VL: B20 VL
# B24: ADC Molecule 20 (antibody 1848-H01, Y180/F404, Conjugate Q) (antibody, V domains shown)
# VH: B7 VH with V11L, Y31T, F32Q, V48I, N54I, S57I, E90D, H100S, Y107M, W108D
# VL: not shown
# modifications: non-natural amino acid (pAMF) at heavy chain constant sites HC-Y180 and HC-F404 (EU numbering), each conjugated to cleavable (ValAla) hemiasterlin linker-drug (Conjugate Q); DAR 3.81
# B25: ADC Molecule 4 (antibody 1848-H01, Y180/F404, Conjugate P) (antibody, V domains shown)
# VH: B7 VH with V11L, Y31T, F32Q, V48I, N54I, S57I, E90D, H100S, Y107M, W108D
# VL: not shown
# modifications: non-natural amino acid (para-azidomethyl-L-phenylalanine, pAMF) at heavy chain constant sites HC-Y180 and HC-F404 (EU numbering), each conjugated to cleavable hemiasterlin linker-drug (Conjugate P); DAR 3.73
# Target: human folate receptor alpha (hFOLR1) (human, UniProt P15328 25-234)
# Sequence (P15328 25-234 limits assumed): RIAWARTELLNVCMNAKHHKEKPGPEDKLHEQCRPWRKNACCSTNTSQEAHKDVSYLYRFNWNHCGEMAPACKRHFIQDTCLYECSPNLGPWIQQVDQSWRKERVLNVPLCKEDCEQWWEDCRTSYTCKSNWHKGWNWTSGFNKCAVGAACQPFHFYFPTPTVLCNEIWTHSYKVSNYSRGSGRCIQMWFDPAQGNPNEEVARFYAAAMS
# Assay: cell-based or functional assay
Binder,Igrov 2° antibody cell killing EC50 [nM],Igrov 2° antibody cell killing Span [%],KB 2° antibody cell killing EC50 [nM],KB 2° antibody cell killing Span [%]
B1,0.016,75,0.051,92
B2,0.026,81,0.057,96
B3,0.036,83,0.073,97
B4,0.023,84,0.04,97
B5,0.038,78,0.058,94
B6,0.019,79,0.046,97
B7,0.038,76,–,98
B8,0.039,71,0.028,94
B9,0.027,73,0.057,94
B10,0.032,77,0.066,94
B11,0.021,76,0.064,91
B12,0.05,79,0.056,93
B13,0.022,66,0.07,91
B14,0.016,67,0.049,96
B15,0.017,70,0.054,91
B16,0.009,68,0.038,94
B17,0.018,71,0.057,92
B18,0.024,77,0.061,94
B19,0.025,74,–,93

# Target: human folate receptor alpha (hFOLR1) on cells (human, UniProt P15328 25-234)
# Sequence (P15328 25-234 limits assumed): as above
# Assay: cell-based or functional assay
Binder,"Igrov 2° Antibody Cell Killing, Nb-SC239, EC50 [nM]","Igrov 2° Antibody Cell Killing, Nb-SC239, span [%]"
B20,0.061,68
B21,0.045,76
B22,0.013,66
B23,0.22,71

# Target: Human folate receptor alpha (hFOLR1) (human, UniProt P15328 25-234)
# Sequence (P15328 25-234 limits assumed): as above
# Assay: cell-based or functional assay
Binder,Cell Killing (Igrov1) EC50 [nM],Cell Killing (Igrov1) Span [%]
B24,0.13,70
B25,0.083,80
